# Data published in article PMC4237735, “Codon optimization and factorial screening for enhanced soluble expression of human ciliary neurotrophic factor in Escherichia coli” (BMC Biotechnology, 2014).
# T1: human ciliary neurotrophic factor receptor alpha (hCNTFRα) (human, UniProt P26992 23-342)
# T1 construct: human ciliary neurotrophic factor receptor alpha (hCNTFRα), bought protein; also called hCNTF receptor; source: bought: Sino Biologicals Inc
# T1 sequence (looked up): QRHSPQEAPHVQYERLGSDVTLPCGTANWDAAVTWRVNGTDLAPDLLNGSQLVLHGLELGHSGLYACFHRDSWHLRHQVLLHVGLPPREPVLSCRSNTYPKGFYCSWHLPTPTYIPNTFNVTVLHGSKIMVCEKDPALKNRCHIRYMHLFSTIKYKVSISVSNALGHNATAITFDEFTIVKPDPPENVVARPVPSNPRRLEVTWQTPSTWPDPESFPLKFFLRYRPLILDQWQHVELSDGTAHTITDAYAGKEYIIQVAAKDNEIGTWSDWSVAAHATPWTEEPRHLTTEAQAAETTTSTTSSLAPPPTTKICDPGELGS
# B1: recombinant 6-His-hCNTF (human ciliary neurotrophic factor), biotinylated (ligand, UniProt P26441 1-200, looked up)
# chain: MAFTEHSPLTPHRRDLCSRSIWLARKIRSDLTALTESYVKHQGLNKNINLDSADGMPVASTDQWSELTEAERLQENLQAYRTFHVLLARLLEDQQVHFTPTEGDFHQAIHTLLLQVAAFAYQIEELMILLEYKIPRNEADGMPINVGDGGLFEKKLWGLKVLQELSQWTVRSIHDLRFISSHQTGIPARGSHYIANNKKM
# modifications: biotin (reacted with a 20-fold molar excess of NHS-PEG4-biotin; sites not stated)
# notes: Rhinovirus 3C protease cleavage site between the tag and the insert; No cleavage of the 6-His tag is described; also called biotinylated hCNTF; biotinylated CNTF; source: E. coli Rosetta 2(DE3)pLysS, TBONEX 25°C, purified (Ni-IDA, SEC)
# Molecular target: T1, human ciliary neurotrophic factor …
# Assay: ELISA; 1 μg hCNTFRα in PBS immobilised on Nunc MaxiSorp 96-well plate; blocked with 2% BSA in TBS-T; biotinylated CNTF 0.2 – 3.0 μg added, room temperature 2 h; detected with HRP-conjugated streptavidin and TMB, OD 450 nm
# Settings: both partners purified
binder,measurement,value
B1,EC50,36 nM
